Substrate in this series: O=[N+]([O-])c1ccc(O[C@@H]2O[C@H](CO)[C@@H](O)[C@H](O)[C@H]2O)cc1
Nature of the series: purified protein. In kind it is biochemical, Levilactobacillus brevis. The conditions noted are these: 50 mM PBS buffer pH 7, 37 °C, 0.01-20 mM substrate.

B1: BglB (Levilactobacillus brevis) (protein)
chain: MDIERTLAELTLPEKAALVSGKNNWYTAAVDRLDLPALMMTDGPSGLRKQTNSGTTNINDAIQAITYPAAALSASTWNESLMHQLGEHLGIEARAEQVSLLLGPGVNMKRSPLGGRNFEYLAEDPLVAGKLGSAYVQGVQSQHVGVAVKHFAANNRENQRFTASSDMSERTLRELYLRTFEIIVKSAYPATIMTSYNKINGVLNSQNERLLRRILRDEWGFHGAVMSDWGAVANTVQALKAGLDLEMPGKGQASVNDIIRAVHTGELDEGTLNKAVRHLLHVVDDWLPADHAQPYDHAAHHQFARKLADDGIILLKNHEDELPLDPQTTGKVVVIGELAENPRFQGSGSSHVNPTKLVSPLDALADSGLKADYYPGYRLDQSETNGDLAEAALTAAKTADHVIIFAGYPETAESEGFDKASLMLPENQSDLIGSLAKANVHTTVVLQNGSAVEMPWIHSVAAVVETYLAGEAVGEATWDIITGAVNPSGHLTETFPRRLTDTPMAPTFGQDPHHEYYTEGIFMGYRYYDTHEMHVLFPFGHGLSYTTFEYTNLKLTQNERGATVTFDVTNTGARSGQAVPQLYIANHASHVPMPTKELRAFTKVAIAPGETETVTLALDRRDFSWWCEPKARWQADSGDYEVMIGESSRDIRLQVKLTMDFKNSPAPITTETYMAAIVKNPQLRDLFKQVVLAPEYAGPENFLATTDDQGSLQIFQDRMFMNMPLRAVVALGGPQALITDFITRANTLLRQ
notes: no signal peptide predicted; C-terminal His tag (stop codon removed, Myc region excised) from pBAD/Myc-His A; expressed in E. coli BL21, Ni-NTA purified; primer-encoded N-terminus MDIERTLAEL
Turning to B1, the Michaelis constant (Km) came to 220 µM and the kcat was found to be 59.58 s⁻¹.
